# Measurements taken from article PMC10681723, “The N-terminus of Spt16 anchors FACT to MCM2–7 for parental histone recycling” (Nucleic Acids Research, 2023).
# B1: GST-tagged Mcm2HBD (residues 1–200) (domain or fragment, yeast, UniProt P29469 1-200, looked up)
# chain: MSDNRRRRREEDDSDSENELPPSSPQQHFRGGMNPVSSPIGSPDMINPEGDDNEVDDVPDIDEVEEQMNEVDLMDDNMYEDYAADHNRDRYDPDQVDDREQQELSLSERRRIDAQLNERDRLLRNVAYIDDEDEEQEGAAQLDEMGLPVQRRRRRRQYEDLENSDDDLLSDMDIDPLREELTLESLSNVKANSYSEWITQ
# notes: also called GST-Mcm2HBD; source: E. coli BL21(DE3) CodonPlus RIL, pGEX4T-1, purified (Glutathione Sepharose)
# Biological target: Recombinant Saccharomyces cerevisiae histone H3/H4 (Saccharomyces cerevisiae, UniProt P61830 1-136; P02309 1-103)
# Test: pull-down; 2 μg GST-Mcm2HBD on Glutathione Sepharose; 0.1, 0.2 and 0.4 μg histone H3/H4 in 0.4 ml buffer A150 (25 mM Tris pH 7.5, 1 mM EDTA, 0.01% NP-40, 150 mM NaCl), 6 h, 4°C; CBB staining
# Conditions: both partners purified
binder,measurement,value
B1,binding result,binds
